Measurements published in PMC11169542, “A probe for NIR-II imaging and multimodal analysis of early Alzheimer’s disease by targeting CTGF” (Nature Communications, 2024).
Ends that are not written are not given here.

Experiments:
[1] = Monitoring DGC in blood serum by ex vivo NIR-II imaging; parameters: species or system C57BL/6J mice; conditions: NIR-II imaging and ICP-MS quantification of DGC in mouse serum after tail vein injection
Method: The C57BL/6J mice (male and female) were injected with DGC (20 mg/kg) through the tail vein (n = 3). After injection, the blood samples were collected at 0.083, 0.25, 0.5, 1, 2, 4, 8, 10, 12, 24, and 48 h through the posterior orbital vein of the mice. The serum was obtained by centrifugation (1200×g for 5 min) to remove blood cells. The serum samples were observed through the In vivo Master (Grand-imaging Technology) equipped with an InGaAs camera C-RED2 (Firstlight) (λ ex = 808 nm, 1000 nm longpass (LP) filter (Edmund Optics)) camera to obtain the NIR-II image (exposure time: 50 ms). ImageJ software was used to process and analyze the images obtained in the experiment, and the DGC content in the sample was evaluated according to the fluorescence intensity of the sample.

[2] = Biosafety: blood tests and organ pathological analysis (H&E staining); assay type: in vivo; conditions: C57BL/6J mice, 20 mg/kg DGC, vs untreated normal mice
Excerpt: In order to clarify the NIR-II signal in AD brains when in vivo imaging is arisen from the DGC probe that bound to CTGF, we selected 3-month-old APP/PS1 mice representing early-stage AD and the age-matched WT mice as control to performed ex vivo multimodal analysis of the brain sections. […] To exclude the influence of vascular retention, we emptied the cerebral vessels by cardiac perfusion and performed ex vivo imaging of the brains. […] For brain sections made from AD mice after tail vein injection of DGC, the red fluorescence observation and LA-ICP-TOF-MS of DGC, as well as a POD-like catalysis test were performed. […] In Fig. 6c, the colocalization of DGC (red fluorescence) and CTGF (green fluorescence) on the ex vivo brain sections confirmed the specificity of DGC targeting CTGF in vivo. To further identify the cellular target of DGC in the brain of APP/PS1 mice, we carried out immunofluorescence staining on the ex vivo brain sections after tail vein injection of DGC where cell-specific fluorescent antibodies for microglia (Iba 1), neurons (NeuN), vascular endothelial cell (CD31) and reactive astrocytes (GFAP) were applied. […] The biosafety of DGC in C57BL/6J mice under the NIR-II imaging condition was evaluated by blood tests (blood cells and biochemical analysis) and organ pathological analysis (H&E staining).

[3] = ICP-MS of Au in whole brains of DGC-injected mice; assay type: in vivo, APP/PS1 and WT mice; conditions: DGC-injected 3-month-old APP/PS1 mice vs WT, n = 3
Method: SH-SY5Y cell, maybe resulting in a similar perception of fluorescence intensity.
Reviewer 1: The ICP-MS of the whole brains from DGC-treated normal or APP/PS1 mice should be quantified, not only brain sections.
NIR-II imaging in Fig. 4 were frozen grinded and digested, and the content of Au in the whole brain was measured by ICP-MS. […]
which was consistent with the results of the NIR -II imaging.
Figure R7. The Au content in brains of DGC -injected 3-month-old APP/PS1 mice and the age- […]
hippo? Is there any experiment or literature to support the content of CTGF at different positions in different periods?
Response: According to previous reports, the expression pattern of CTGF was slightly different in several AD mouse models. The homing of DAG peptide was mainly seen in the cortex of the Tg2576 mice and in the hippocampus of the hAPP-J20 mice (Nat.
Commun. 2017, 8, 1403). A marked increase of CTGF levels in the brains of APP/PS1 transgenic mice were also observed, and is mainly located in the cortical (Mol.
(1 picture or pasted object on this page, not shown here)

[4] = Absolute quantum yield, integrated sphere technique; assay type: physicochemical
Method: Figure R6. Stability of DGC in AD brains. Monitoring fluorescence intensity of DGC in brain of WT mice and 3-month-old APP/PS1 mice for 24 h (left). In vivo and ex vivo NIR-II imaging of brains after DGC injected for 24 h (right).
The absolute quantum yield (QY) of DGC probe was measured to be ~0.7% using an […]
for biological applications. Although this QY is not high, but sufficient to produce a bright signal in the AD mouse brain for detection in vivo in this study.
Reviewer 3: The co-localization coefficient should be calculated in Figure 2d. […]
was calculated by Image J software. The co-localization coefficient (Pearson's correlation coefficient) of DGC and CTGF antibodies in Figure 2d was 0.946 (Fig. R15).
Figure R15. The co-localization coefficient (Pearson's correlation coefficient) of DGC and CTGF […]

CTX TNA2 cells = assay: Cytotoxicity of DGC (CCK-8); assay type: cell-based; parameters: key: viability relative to control cells (control = 1); conditions: 200 μM (Au content), 24 h, CCK-8, normalized to control
CTGF = target: T1, CTGF (Homo sapiens, UniProt P29279); assay: Affinity between DGC/DAG and CTGF protein by SPR (BIAcore); assay type: binding; parameters: purchased Abcam ab283457; conditions: ratio of SPR KD values
T1 sequence (P29279 27-349): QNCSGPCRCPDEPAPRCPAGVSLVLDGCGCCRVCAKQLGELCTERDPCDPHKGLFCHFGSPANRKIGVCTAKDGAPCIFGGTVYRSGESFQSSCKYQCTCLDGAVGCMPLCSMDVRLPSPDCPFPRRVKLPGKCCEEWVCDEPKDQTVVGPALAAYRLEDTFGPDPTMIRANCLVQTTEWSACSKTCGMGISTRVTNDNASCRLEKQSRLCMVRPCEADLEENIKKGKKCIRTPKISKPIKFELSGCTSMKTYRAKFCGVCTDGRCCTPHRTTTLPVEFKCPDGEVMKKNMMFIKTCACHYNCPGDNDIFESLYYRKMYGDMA
Method: Real-time binding and kinetic analyses by surface plasmon resonance (SPR) were performed on a BIAcore 8 K^+ instrument (Pharmacia Biosensor AB). The recombinant Human CTGF protein (Abcam, Cat#ab283457) was immobilized on a CM5 chip by using an amine coupling kit, and the remaining coupling sites were blocked with ethanolamine. The eluent contained PBS and 0.005% Tween 20. Binding was evaluated over a range of DAG (0.5–16 μM) or DGC (0.01– 0.16 μM) concentrations at 25 °C. Kinetic parameters were further determined with Biacore Insight Evaluation 3.0 software.

For “DGC: CTGF-targeting peptide-coated gold nanocluster: one Au26 gold nanocluster coated by eight DAG cyclic peptides, NIR-II and red fluorescence (CDAGRKQKC; also: cyclic peptide, ring not given here, eight peptides on one Au26 nanocluster via Cys Au-S bonds)”, the “stability in blood circulation” value [1] was “high stability during internal circulation”, the “abnormalities in blood parameters and major organs” value [2] was “did not induce any abnormalities in blood parameters and major organs” and the “Au content in whole brain, APP/PS1 vs age-matched WT” value [3] was “more than twice”. For the same substance, the “absolute quantum yield (QY)” value [4] was ~ 0.7%, the Cell viability (CTX TNA2 cells; replicate 1) was 1.4709 and the Cell viability (CTX TNA2 cells; replicate 2) was 1.567. For the same substance, the Cell viability (CTX TNA2 cells; replicate 3) was 1.589 and the “binding affinity of DGC to CTGF relative to free DAG peptide” value (CTGF) was “more than 1000 times”.
